Source: PMC11574045, “A cofactor-induced repressive type of transcription factor condensation can be induced by synthetic peptides to suppress tumorigenesis” (The EMBO Journal, 2024)

B1: FERD3L (protein, UniProt Q96RJ6 1-166, looked up)
Fer3-like protein: MAAYPESCVDTTVLDFVADLSLASPRRPLLCDFAPGVSLGDPALALREGRPRRMARFEEGDPEEEECEVDQGDGEEEEEEERGRGVSLLGRPKRKRVITYAQRQAANIRERKRMFNLNEAFDQLRRKVPTFAYEKRLSRIETLRLAIVYISFMTELLESCEKKESG
B2: ETV7 (protein, UniProt Q9Y603 1-341, looked up)
Transcription factor ETV7: MQEGELAISPISPVAAMPPLGTHVQARCEAQINLLGEGGICKLPGRLRIQPALWSREDVLHWLRWAEQEYSLPCTAEHGFEMNGRALCILTKDDFRHRAPSSGDVLYELLQYIKTQRRALVCGPFFGGIFRLKTPTQHSPVPPEEVTGPSQMDTRRGHLLQPPDPGLTSNFGHLDDPGLARWTPGKEESLNLCHCAELGCRTQGVCSFPAMPQAPIDGRIADCRLLWDYVYQLLLDTRYEPYIKWEDKDAKIFRVVDPNGLARLWGNHKNRVNMTYEKMSRALRHYYKLNIIKKEPGQKLLFRFLKTPGKMVQDKHSHLEPLESQEQDRIEFKDKRPEISP
B3: EZH1 (protein, UniProt Q92800 1-747, looked up)
Histone-lysine …: MEIPNPPTSKCITYWKRKVKSEYMRLRQLKRLQANMGAKALYVANFAKVQEKTQILNEEWKKLRVQPVQSMKPVSGHPFLKKCTIESIFPGFASQHMLMRSLNTVALVPIMYSWSPLQQNFMVEDETVLCNIPYMGDEVKEEDETFIEELINNYDGKVHGEEEMIPGSVLISDAVFLELVDALNQYSDEEEEGHNDTSDGKQDDSKEDLPVTRKRKRHAIEGNKKSSKKQFPNDMIFSAIASMFPENGVPDDMKERYRELTEMSDPNALPPQCTPNIDGPNAKSVQREQSLHSFHTLFCRRCFKYDCFLHPFHATPNVYKRKNKEIKIEPEPCGTDCFLLLEGAKEYAMLHNPRSKCSGRRRRRHHIVSASCSNASASAVAETKEGDSDRDTGNDWASSSSEANSRCQTPTKQKASPAPPQLCVVEAPSEPVEWTGAEESLFRVFHGTYFNNFCSIARLLGTKTCKQVFQFAVKESLILKLPTDELMNPSQKKKRKHRLWAAHCRKIQLKKDNSSTQVYNYQPCDHPDRPCDSTCPCIMTQNFCEKFCQCNPDCQNRFPGCRCKTQCNTKQCPCYLAVRECDPDLCLTCGASEHWDCKVVSCKNCSIQRGLKKHLLLAPSDVAGWGTFIKESVQKNEFISEYCGELISQDEADRRGKVYDKYMSSFLFNLNNDFVVDATRKGNKIRFANHSVNPNCYAKVVMVNGDHRIGIFAKRAIQAGEELFFDYRYSQADALKYVGIERETDVL
B4: ERCC3 (protein, UniProt P19447 1-782, looked up)
General transcription and DNA …: MGKRDRADRDKKKSRKRHYEDEEDDEEDAPGNDPQEAVPSAAGKQVDESGTKVDEYGAKDYRLQMPLKDDHTSRPLWVAPDGHIFLEAFSPVYKYAQDFLVAIAEPVCRPTHVHEYKLTAYSLYAAVSVGLQTSDITEYLRKLSKTGVPDGIMQFIKLCTVSYGKVKLVLKHNRYFVESCHPDVIQHLLQDPVIRECRLRNSEGEATELITETFTSKSAISKTAESSGGPSTSRVTDPQGKSDIPMDLFDFYEQMDKDEEEEEETQTVSFEVKQEMIEELQKRCIHLEYPLLAEYDFRNDSVNPDINIDLKPTAVLRPYQEKSLRKMFGNGRARSGVIVLPCGAGKSLVGVTAACTVRKRCLVLGNSAVSVEQWKAQFKMWSTIDDSQICRFTSDAKDKPIGCSVAISTYSMLGHTTKRSWEAERVMEWLKTQEWGLMILDEVHTIPAKMFRRVLTIVQAHCKLGLTATLVREDDKIVDLNFLIGPKLYEANWMELQNNGYIAKVQCAEVWCPMSPEFYREYVAIKTKKRILLYTMNPNKFRACQFLIKFHERRNDKIIVFADNVFALKEYAIRLNKPYIYGPTSQGERMQILQNFKHNPKINTIFISKVGDTSFDLPEANVLIQISSHGGSRRQEAQRLGRVLRAKKGMVAEEYNAFFYSLVSQDTQEMAYSTKRQRFLVDQGYSFKVITKLAGMEEEDLAFSTKEEQQQLLQKVLAATDLDAEEEVVAGEFGSRSSQASRRFGTMSSMSGADDTVYMEYHSSRSKAPSKHVHPLFKRFRK
B5: ERF (protein, UniProt P50548 1-548, looked up)
ETS domain-containing …: MKTPADTGFAFPDWAYKPESSPGSRQIQLWHFILELLRKEEYQGVIAWQGDYGEFVIKDPDEVARLWGVRKCKPQMNYDKLSRALRYYYNKRILHKTKGKRFTYKFNFNKLVLVNYPFIDVGLAGGAVPQSAPPVPSGGSHFRFPPSTPSEVLSPTEDPRSPPACSSSSSSLFSAVVARRLGRGSVSDCSDGTSELEEPLGEDPRARPPGPPDLGAFRGPPLARLPHDPGVFRVYPRPRGGPEPLSPFPVSPLAGPGSLLPPQLSPALPMTPTHLAYTPSPTLSPMYPSGGGGPSGSGGGSHFSFSPEDMKRYLQAHTQSVYNYHLSPRAFLHYPGLVVPQPQRPDKCPLPPMAPETPPVPSSASSSSSSSSSPFKFKLQPPPLGRRQRAAGEKAVAGADKSGGSAGGLAEGAGALAPPPPPPQIKVEPISEGESEEVEVTDISDEDEEDGEVFKTPRAPPAPPKPEPGEAPGASQCMPLKLRFKRRWSEDCRLEGGGGPAGGFEDEGEDKKVRGEGPGEAGGPLTPRRVSSDLQHATAQLSLEHRDS
B6: ETV1 (protein, UniProt P50549 1-477, looked up)
ETS translocation variant 1: MDGFYDQQVPYMVTNSQRGRNCNEKPTNVRKRKFINRDLAHDSEELFQDLSQLQETWLAEAQVPDNDEQFVPDYQAESLAFHGLPLKIKKEPHSPCSEISSACSQEQPFKFSYGEKCLYNVSAYDQKPQVGMRPSNPPTPSSTPVSPLHHASPNSTHTPKPDRAFPAHLPPSQSIPDSSYPMDHRFRRQLSEPCNSFPPLPTMPREGRPMYQRQMSEPNIPFPPQGFKQEYHDPVYEHNTMVGSAASQSFPPPLMIKQEPRDFAYDSEVPSCHSIYMRQEGFLAHPSRTEGCMFEKGPRQFYDDTCVVPEKFDGDIKQEPGMYREGPTYQRRGSLQLWQFLVALLDDPSNSHFIAWTGRGMEFKLIEPEEVARRWGIQKNRPAMNYDKLSRSLRYYYEKGIMQKVAGERYVYKFVCDPEALFSMAFPDNQRPLLKTDMERHINEEDTVPLSHFDESMAYMPEGGCCNPHPYNEGYVY
B7: AFF3 (protein, UniProt P51826 1-1226, looked up)
AF4/FMR2 family member 3: MDSFDLALLQEWDLESLCVYEPDRNALRRKERERRNQETQQDDGTFNSSYSLFSEPYKTNKGDELSNRIQNTLGNYDEMKDFLTDRSNQSHLVGVPKPGVPQTPVNKIDEHFVADSRAQNQPSSICSTTTSTPAAVPVQQSKRGTMGWQKAGHPPSDGQQRATQQGSLRTLLGDGVGRQQPRAKQVCNVEVGLQTQERPPAMAAKHSSSGHCVQNFPPSLASKPSLVQQKPTAYVRPMDGQDQAPDESPKLKSSSETSVHCTSYRGVPASKPEPARAKAKLSKFSIPKQGEESRSGETNSCVEEIIREMTWLPPLSAIQAPGKVEPTKFPFPNKDSQLVSSGHNNPKKGDAEPESPDNGTSNTSMLEDDLKLSSDEEENEQQAAQRTALRALSDSAVVQQPNCRTSVPSSKGSSSSSSSGSSSSSSDSESSSGSDSETESSSSESEGSKPPHFSSPEAEPASSNKWQLDKWLNKVNPHKPPILIQNESHGSESNQYYNPVKEDVQDCGKVPDVCQPSLREKEIKSTCKEEQRPRTANKAPGSKGVKQKSPPAAVAVAVSAAAPPPAVPCAPAENAPAPARRSAGKKPTRRTERTSAGDGANCHRPEEPAAADALGTSVVVPPEPTKTRPCGNNRASHRKELRSSVTCEKRRTRGLSRIVPKSKEFIETESSSSSSSSDSDLESEQEEYPLSKAQTVAASASSGNDQRLKEAAANGGSGPRAPVGSINARTTSDIAKELEEQFYTLVPFGRNELLSPLKDSDEIRSLWVKIDLTLLSRIPEHLPQEPGVLSAPATKDSESAPPSHTSDTPAEKALPKSKRKRKCDNEDDYREIKKSQGEKDSSSRLATSTSNTLSANHCNMNINSVAIPINKNEKMLRSPISPLSDASKHKYTSEDLTSSSRPNGNSLFTSASSSKKPKADSQLQPHGGDLTKAAHNNSENIPLHKSRPQTKPWSPGSNGHRDCKRQKLVFDDMPRSADYFMQEAKRMKHKADAMVEKFGKALNYAEAALSFIECGNAMEQGPMESKSPYTMYSETVELIRYAMRLKTHSGPNATPEDKQLAALCYRCLALLYWRMFRLKRDHAVKYSKALIDYFKNSSKAAQAPSPWGASGKSTGTPSPMSPNPSPASSVGSQGSLSNASALSPSTIVSIPQRIHQMAANHVSITNSILHSYDYWEMADNLAKENREFFNDLDLLMGPVTLHSSMEHLVQYSQQGLHWLRNSAHLS
B8: FHL2 (protein, UniProt Q14192 1-279, looked up)
Four and a half LIM domains …: MTERFDCHHCNESLFGKKYILREESPYCVVCFETLFANTCEECGKPIGCDCKDLSYKDRHWHEACFHCSQCRNSLVDKPFAAKEDQLLCTDCYSNEYSSKCQECKKTIMPGTRKMEYKGSSWHETCFICHRCQQPIGTKSFIPKDNQNFCVPCYEKQHAMQCVQCKKPITTGGVTYREQPWHKECFVCTACRKQLSGQRFTARDDFAYCLNCFCDLYAKKCAGCTNPISGLGGTKYISFEERQWHNDCFNCKKCSLSLVGRGFLTERDDILCPDCGKDI
B9: ESRRA (protein, UniProt P11474 1-423, looked up)
Steroid hormone receptor ERR1: MSSQVVGIEPLYIKAEPASPDSPKGSSETETEPPVALAPGPAPTRCLPGHKEEEDGEGAGPGEQGGGKLVLSSLPKRLCLVCGDVASGYHYGVASCEACKAFFKRTIQGSIEYSCPASNECEITKRRRKACQACRFTKCLRVGMLKEGVRLDRVRGGRQKYKRRPEVDPLPFPGPFPAGPLAVAGGPRKTAAPVNALVSHLLVVEPEKLYAMPDPAGPDGHLPAVATLCDLFDREIVVTISWAKSIPGFSSLSLSDQMSVLQSVWMEVLVLGVAQRSLPLQDELAFAEDLVLDEEGARAAGLGELGAALLQLVRRLQALRLEREEYVLLKALALANSDSVHIEDAEAVEQLREALHEALLEYEAGRAGPGGGAERRRAGRLLLTLPLLRQTAGKVLAHFYGVKLEGKVPMHKLFLEMLEAMMD
B10: ETV2 (protein, UniProt P41163 1-335, looked up)
ETS translocation variant 2: MDLWNWDEASLQEVPPGDKLTGLGAEFGFYFPEVALQEDTPITPMNVEGCWKGFPELDWNPALPHEDVPFQAEPVAHPLPWSRDWTDLGCNTSDPWSCASQTPGPAPPGTSPSPFVGFEGATGQNPATSAGGVPSWSHPPAAWSTTSWDCSVGPSGATYWDNGLGGEAHEDYKMSWGGSAGSDYTTTWNTGLQDCSIPFEGHQSPAFTTPSKSNKQSDRATLTRYSKTNHRGPIQLWQFLLELLHDGARSSCIRWTGNSREFQLCDPKEVARLWGERKRKPGMNYEKLSRGLRYYYRRDIVLKSGGRKYTYRFGGRVPVLAYQDDMGHLPGAEGQ

Tested on: HEK293FT cells transfected with TF library
Test: Screening of TF condensates based on fluorescent puncta
Assay type: cell-based
Conditions: Figure 1B numerical data; TF library screen, one value per transcriptional factor
Procedure: TF plasmids were automatically added to black-walled 384-well plates at 80 ng per well to reach a final concentration of 1.6 μg/ml. Polyethylenimine (PEI, Sigma) was then added to the plasmid-loaded plates at 240 ng per well (4.8 μg/ml). Subsequently, HEK293FT cells were seeded into the plate at 2000 cells per well. After 60 h, cells were cultured in medium with or without glucose for 12 h, and then fixed with 4% paraformaldehyde (PFA) at room temperature for 30 min. After three washes with PBS, fixed cells were permeabilized with 0.05% Triton X-100 for 15 min. Thereafter, cells were blocked with 5% BSA for 1 h, and then incubated overnight with anti-Flag (Sigma F3165, 1:200) and anti-GAL4 (Abbkine ABP57232, 1:200) primary antibodies at 4 °C. The cells were then gently washed with PBS, followed by being incubated with Alexa Fluor Plus 488 goat anti-mouse IgG secondary antibody (Thermo A32723, 1:400) or Alexa Fluor Plus 488 goat anti-rabbit IgG secondary antibody (Thermo A32731, 1:400) for 1 h. The plates were kept at 4 °C in the dark before being analyzed using an Opera System (Perkin Elmer). Fifty random fields per well were scanned and analyzed using the Columbus Plus Image Data Storage and Analysis System (Perkin Elmer).

| Molecule | Z score of condensed fraction |
| --- | --- |
| B1 | 0.6489 |
| B2 | -0.026 |
| B3 | -2.133 |
| B4 | -0.7686 |
| B5 | -0.2253 |
| B6 | -0.2404 |
| B7 | -0.8104 |
| B8 | 0.8678 |
| B9 | 0.7125 |
| B10 | 0.6041 |
